Source: the nanobody polyreactivity screen of Harvey et al. (2022)

Assay: yeast display, Sf9 membrane polyspecificity reagent, FACS + sequencing; frameworks hold sequencing errors
Summary of the method: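 In a synthetic yeast display library (Saccharomyces cerevisiae BJ5465), nanobody expression was induced with galactose for 36–48 hours. FACS gates were set low and high (top ~1%) using anti-HA fluorescence for expression and streptavidin fluorescence for binding of the Sf9 membrane reagent. Each polyreactivity label is drawn from the gate of origin.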

Row | Sequence | polyreactivity (PSR sort gate)
1 | QVQLVESGGGLVQAGGSLRLSCADSGRILIGYTRGWYRQAPGKERELVARINYSGGSTYYADSVKGRFTISRDNAKNTVYLQMNSLKPEDTAVYYCAADVRRGYYTWPPRRVYYWGQGTQVTVSS | high polyreactivity
2 | QVQLVESGGGLVQAGGSLRLSCADSGRTFGVYTMGWYRQAPGKERELVAAISGSGGSTYYADSVKGRFTISRDNAKNTVYLQMNSLKPEDTAVYYCNADQNVDVFYRYRLYDSWGQGTQVTVSS | high polyreactivity
3 | QVQLVESGGGLVQAGGSLRLSCADSGRTFSYNLMGWYSQAPGKESEVVAAISRRGGSTYYADSVKGRFTISRDNAKNTVYLQMNSLKPEDTAVYYCNAVSPSPGGGYWGQGSQVTVSS | high polyreactivity
4 | QVQLVESGGGLVQAGGSLRLSCADSGRTFVTTAMGWYRQAPGKERELVAAIDGGGDRTYYADTVKVRFTISRDYAKYTVYLQMNSLKPEDSAVYYCNKDRGTLYGDMDSWGQGTQVTVSS | low polyreactivity
5 | QVQLVESGGGLVQAGGSLRLSCADSGRTFYPNAMGWYRQAPGKERELVARIRQSGTSTYYADSVKGRFTISRDNAKNTVYLQMNSLKPEDTAVYYCAARYAVGYPPYRYYYWGQGTQVTVSS | high polyreactivity
6 | QVQLVESGGGLVQAGGSLRLSCADSGRTFYPYVMGWYRQAPGKERELVADISWSGGRTYYADSVKGRFTISRDNAKNTVYLQMYSLKPEDTAVYYCCAGYRRRYNYWGQGTQVTVSS | high polyreactivity
7 | QVQLVESGGGLVQAGGSLRLSCADSGRTFYRNAMGWYRQAPGKERELVAAITWSAGSTYYADSVKGRFTISRDNAKNTVYLQMNSLKPEDSAVYYCAKYPSKSYVPGDYWGQGTQVTVSS | low polyreactivity
8 | QVQLVESGGGLVQAGGSLRLSCADSGRTLGYYAKGWYRQAPGKEREVVAAITSGGRTNYADSVKGRFTISRDNAKNTVYLQMNSLKPEDTAVYYCAAARYLSGGYEKYDYWGQGTQVTVSS | low polyreactivity
9 | QVQLVESGGGLVQAGGSLRLSCADSGSIFDIYAMGWYRQAPGKERELVADISWSGGSTYYADSVKGRFTISRDNAKNTVYLQMNSLKPEDTAVYYCAADSSRRIGEDYWGQGTQVTVSS | low polyreactivity
10 | QVQLVESGGGLVQAGGSLRLSCADSGSIFGSYATGWYRQAPGKERELVAAITYSGTSTYYADSVKGRFTISRDTAKNTVYLQMNRLKPEDTAVYYCAKRHWFQYRRPDLGRFDYWGQGTQVTVSS | high polyreactivity
11 | QVQLVESGGGLVQAGGSLRLSCADSGSIFRIYAMGWYSQAPGKERELVAAITGRGGSTYYADSVKGRFTISRDNAKNTVYLQMNSLKPEDTAVYYCAAEERYAYRYDYWGQGTQVTVSS | high polyreactivity
12 | QVQLVESGGGLVQAGGSLRLSCADSGSNFRTYVMGWYRQAPGNERDMVAAITNGISTNYADSVKGRFTISRDNAKNSVYLQMISMKPEDTAVYYCAAGFRSTYYTFRFGYWGQGTQVTVST | high polyreactivity
13 | QVQLVESGGGLVQAGGSLRLSCADSGSTFAGNAMGWYRQAPGKERELVAAIVSSTGSTYYADSVKGRFTISRDNAKNTVYLQMNSLKPEDTAVYYCNKTSFLVKLDYWGQGTQVTVSS | low polyreactivity
14 | QVQLVESGGGLVQAGGSLRLSCADSGSTFGKNAMGWYRQAPGKDRELVAAITRRGVSTNYADSEKGRFTISRDNAKNTVYLQMNSLKPEDTAVYYCARGSELGYYAWVYYLGQGTQVTVSS | high polyreactivity
15 | QVQLVESGGGLVQAGGSLRLSCADSGSTFRRNVMGWYRQAPGKERELVASIRSGGTTNYADSVKGRFTISRDNAKNTVYLQMNSLKPEDTAVYYCAAARSRGYYRASAVVLYGYWGQGTQVTVSS | high polyreactivity
16 | QVQLVESGGGLVQAGGSLRLSCADSGSTFRYYVMGWYRQAPGKERELVARITSAASTNYADSVKGRFTISRDNAKNTVYLQMNSLKPEDTAVYYCAARKYGSRYRLKYDYWGQGTQVTVSS | high polyreactivity
17 | QVQLVESGGGLVQAGGSLRLSCADSGSTFVNYAMGWYRQAPGKERELVAAISSTGGSTYYADSVKGRFTISRDNAKNTVYLQMNSLKPEDTAVYYCAAYRYFKMGYWGQGTQVTVSS | high polyreactivity
18 | QVQLVESGGGLVQAGGSLRLSCADSGSTFWPYAMGWYRQAPGKESEVVAAISSSGGSTYYADSVQGRFTISRDNAKNTVYLQMNSLKPEDTAVYYCNKDYHRPFGGGSKGDYWGQRTQVTVSS | low polyreactivity
19 | QVQLVESGGGLVQAGGSLRLSCADSGTTVIFNAMGWYRQAPGKERELVGAISWRLGRTYYAYSVKGRFTISRDNAKNTVYLQMNSLTPEDTAVYYCARDYSRHKGDYWGQGTQVTVSS | low polyreactivity
20 | QVQLVESGGGLVQAGGSLRLSCADSGYIFEVYAMGWYRPAPGKERELVAAIDYSDGTTYYADSVKGRFTISRDNAKNTVYLQMNSLKPEDTAVYYCAADFPGQHYDYWGQGTQVTVSS | low polyreactivity
21 | QVQLVESGGGLVQAGGSLRLSCADSVFIFYLNAMGWYRQAPRKERELVATITNRGGSTYFADSVKGRFTISRDNAKNTVYLQMNSLKPEDTAVYYCAARTRERYSKPYFYRRFGYWGQGTQVTVSS | low polyreactivity

Row | Sequence | polyreactivity (PSR sort gate)
22 | QVQLVESGGGLVQAGGSLRLSCADTGRIFTRYAMGWYRQAPGKERELVASIRSGGSTYYADSVKGRFTISRDNAKNTVYLQMNSLKPEDTAVYFCAKGTFDLHYRKRYNYWGQGTQVTVSS | low polyreactivity
23 | QVQLVESGGGLVQAGGSLRLSCADYGYIFVGNAMGCYRQAPGKDRELVAAINSGGSTNYADSVKGRFTISRDNEKNTVYLQMNSLKPEDTAVYYCNAEAPRYNYGRMDYLGQGTQVTVSS | low polyreactivity
24 | QVQLVESGGGLVQAGGSLRLSCAGSGFIFTDYAMGWYRQAPGKERELVATISWSGSSTYYADSVKGRFTISRDNAKNTVYLQMNSLKPEDTAVYYCAAEFWYTYPYLVDYWGQGTQVTVSS | low polyreactivity
25 | QVQLVESGGGLVQAGGSLRLSCAGSGFILGYNAMGWYRQAPGKERELVAVIDSIGDGTYYADSVKGRFTISRDNAKNTVYLQMISLKPEDTAVYYCDVDDYYEMDYWGQGTQVTVSS | low polyreactivity
26 | QVQLVESGGGLVQAGGSLRLSCAGSGFTFKWYAMGWYRQAPGKERELVAGISRGGTTNYADSVKGRFTISRDNAKNTVYLQLNSLKPEDTAVYYCAKTSYVSYRGLTYYYWGQGTQVTVSS | high polyreactivity
27 | QVQLVESGGGLVQAGGSLRLSCAGSGIIFAWYAMGWYRQAPGKERELVAAITSGGGSTYYADSVKGRFTISRDNAKNTVYLQMNSLKPEDTAVYYCAADYQTIGWGYDYWGQGTQVTVSS | low polyreactivity
28 | QVQLVESGGGLVQAGGSLRLSCAGSGIIFFPYAMGWYRPAPGKERELVASINISDSSTYYADSVKGRFTISRDNAKNTVYLQMNSLKPQDTAVYYCAADNRGDSWYWHGYWGQGTQVTVSS | low polyreactivity
29 | QVQLVESGGGLVQAGGSLRLSCAGSGNIFVFYVMGWYRQAAGKERELVASISSTGNTYYADSVKGRFTISRDNAKNTVYLQMNSLKPEDTAVYYGAADSHQNVSGWLRWPRMDYWGQGTQVTVSS | low polyreactivity
30 | QVQLVESGGGLVQAGGSLRLSCAGSGSIFGRYVVGWYRLAPGKEREFVAAITYSGSSTYYADSVKWRFTISRDNAKNTVYVQINSLKPEDTAVYYCNTYPRSYYWMGYWGQGTQVTVSS | high polyreactivity
31 | QVQLVESGGGLVQAGGSLRLSCAGSGSIFPFYVMGWYRQAPGKEREFVATISSRGGSTYYADSVKGRFTISRDNAKNTVYLQMNSLKPEDTAVYYCAAGWYRTDWGQRLHTYYYWGQGTQVTVSS | high polyreactivity
32 | QVQLVESGGGLVQAGGSLRLSCAGSGSNFDVYTMGWYRKAPGKERELVAAINTGGGSTYYADSVKGRFTISRDNAMNTVYLQMNSLKPEDTAVYYCAASVYHYGPLYYWRQGTQVTVSS | low polyreactivity
33 | QVQLVESGGGLVQAGGSLRLSCAGSGSTFDGNAMGWYRQAPGKDRELVAAITSGGSTNYADSVKGRFTISRDNAKNTVYLQMNSLKPEDTAVYYCAADTVSFSILYDYWGQGTQVTVSS | low polyreactivity
34 | QVQLVESGGGLVQAGGSLRLSCAGSGSTFWVNDMGWSRQAPGKERELVASITISTGATYYADSVKGRFTISRDTAKNTVYVQINSLKPEDTAVYYCNVEFENSGWKSFDYWGQGTQVTVSS | low polyreactivity
35 | QVQLVESGGGLVQAGGSLRLSCAGYGLTFEYYTMGWYRQAPGKGRELVAAITSSGGSTYYADSVKGRFTISRDNSKNTFYLQMISLKPEDTAVYYCNAYLTYEFPSYDYWGQGTQVTVSS | low polyreactivity
36 | QVQLVESGGGLVQAGGSLRLSCAPCGSIFPAYTMGWYRRAPGKERELVAAISRRGGSTYYADCVKGRFTISRDNEKNTVYLQMNRLKPEDTAVYDCAKVPDYRFEYWGQGSQVTVSS | high polyreactivity
37 | QVQLVESGGGLVQAGGSLRLSCAPSARTFVYNAMGWYRQAPGKERELVAAIDGGGDRTYYADSVKGRFTISRDNAKYTVYIQMYSLKPEDTAVYYCARDPGDTYYYSYPEGDYWGQGTQVTVSS | low polyreactivity
38 | QVQLVESGGGLVQAGGSLRLSCAPSGFIFVSNAMVWYRQEPGKERELFADITSRGDSTYYADSVKGRFTISRDNAKNTVYLQMNSLKPEDTAVYYCAVDQLYFPWSFSWYGYWGQGTQVTVSS | low polyreactivity
39 | QVQLVESGGGLVQAGGSLRLSCAPSGFIITYFGMGWYRQAPGKERELVAAISSRGGSTYYADSVKGRFTISRDTAKNTVYLQMNSLKPEDTAVYYFNTDSYRWTFSNRRYDYWGQGTQVTVSS | high polyreactivity
40 | QVQLVESGGGLVQAGGSLRLSCAPSGFSIIGNAMGWYRQAPGKERELVAAISRRGGSTYYADSVKGRFTISRDNAKNTVYLQLNSLKPEDTAVYYCATDPGARVHYPTGDYWGQGTQVTVSS | high polyreactivity
41 | QVQLVESGGGLVQAGGSLRLSCAPSGFTFRYYAMGWYRQAPGKERELVAAISWSVGSTYYADSVKGRFTISRDNAKNTVYLQMNSLKPEDTAVYYCNAAWPGYISNRLGYDYWGQGTQVTVSS | high polyreactivity
